B1: His6-DCB^BIG1 (human BIG1 residues 1–228), Q9Y6D6 L156D (protein)
chain: MYEGKKTKNMFLTRALEKILADKEVKKAHHSQLRKACEVALEEIKAETEKQSPPHGEAKAGSSTLPPVKSKTNFIEADKYFLPFELACQSKCPRIVSTSLDCLQKLIAYGHLTGNAPDSTTPGKKLIDRIIETICGCFQGPQTDEGVQLQIIKALDTAVTSQHIEIHEGTVLQAVRTCYNIYLASKNLINQTTAKATLTQMLNVIFARMENQALQEAKQMEKERHRQH
B2: His6-DCB^BIG1 (human BIG1 residues 1–228), Q9Y6D6 K105D (protein)
chain: MYEGKKTKNMFLTRALEKILADKEVKKAHHSQLRKACEVALEEIKAETEKQSPPHGEAKAGSSTLPPVKSKTNFIEADKYFLPFELACQSKCPRIVSTSLDCLQDLIAYGHLTGNAPDSTTPGKKLIDRIIETICGCFQGPQTDEGVQLQIIKALLTAVTSQHIEIHEGTVLQAVRTCYNIYLASKNLINQTTAKATLTQMLNVIFARMENQALQEAKQMEKERHRQH
B3: His6-DCB^BIG1 Lys105Asp (domain or fragment)
chain: MYEGKKTKNMFLTRALEKILADKEVKKAHHSQLRKACEVALEEIKAETEKQSPPHGEAKAGSSTLPPVKSKTNFIEADKYFLPFELACQSKCPRIVSTSLDCLQDLIAYGHLTGNAPDSTTPGKKLIDRIIETICGCFQGPQTDEGVQLQIIKALLTAVTSQHIEIHEGTVLQAVRTCYNIYLASKNLINQTTAKATLTQMLNVIFARMENQALQEAKQMEKERHRQH
B4: His6-DCB^BIG1 (human BIG1 residues 1–228) (domain or fragment)
chain: MYEGKKTKNMFLTRALEKILADKEVKKAHHSQLRKACEVALEEIKAETEKQSPPHGEAKAGSSTLPPVKSKTNFIEADKYFLPFELACQSKCPRIVSTSLDCLQKLIAYGHLTGNAPDSTTPGKKLIDRIIETICGCFQGPQTDEGVQLQIIKALLTAVTSQHIEIHEGTVLQAVRTCYNIYLASKNLINQTTAKATLTQMLNVIFARMENQALQEAKQMEKERHRQH
B5: His6-DCB^BIG1 Gln200Glu (domain or fragment)
chain: MYEGKKTKNMFLTRALEKILADKEVKKAHHSQLRKACEVALEEIKAETEKQSPPHGEAKAGSSTLPPVKSKTNFIEADKYFLPFELACQSKCPRIVSTSLDCLQKLIAYGHLTGNAPDSTTPGKKLIDRIIETICGCFQGPQTDEGVQLQIIKALLTAVTSQHIEIHEGTVLQAVRTCYNIYLASKNLINQTTAKATLTEMLNVIFARMENQALQEAKQMEKERHRQH
B6: His6-DCB^BIG1 (human BIG1 residues 1–228), Q9Y6D6 Q200E (protein)
chain: MYEGKKTKNMFLTRALEKILADKEVKKAHHSQLRKACEVALEEIKAETEKQSPPHGEAKAGSSTLPPVKSKTNFIEADKYFLPFELACQSKCPRIVSTSLDCLQKLIAYGHLTGNAPDSTTPGKKLIDRIIETICGCFQGPQTDEGVQLQIIKALLTAVTSQHIEIHEGTVLQAVRTCYNIYLASKNLINQTTAKATLTEMLNVIFARMENQALQEAKQMEKERHRQH

Key:
[1] = target: NT-495-labeled Arl1^GTP, P40616; assay: fluorescence anisotropy; settings: chain shown with the change;; parent: 26 ± 5
Sequence of NT-495-labeled Arl1^GTP, P40616 (P40616 15-181 Q71L): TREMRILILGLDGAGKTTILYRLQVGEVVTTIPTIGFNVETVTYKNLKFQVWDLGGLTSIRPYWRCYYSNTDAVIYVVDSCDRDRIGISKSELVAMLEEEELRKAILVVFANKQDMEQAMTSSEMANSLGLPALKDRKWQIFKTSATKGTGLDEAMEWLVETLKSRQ

[2] = target: NT-495-labeled Arl1^GTP (human) (UniProt P40616); assay: fluorescence polarisation; fluorescence anisotropy, NT-495-labeled Arl1 titrated with DCB variants, 20°C, 50 mM Tris-HCl pH 8.0, 110 mM KCl, 1 mM DTT, 5 mM MgCl2, 0.001% Triton X-100, 0.1% Tween-20, 5 μM GTP; single-site (1:1) model

| Binder | Kd [1] [µM] | fold increase of Kd against wild type [2] [fold] | also measured |
| --- | --- | --- | --- |
| B1 | 86 | – | – |
| B2 | 110 | – | – |
| B3 | – | > 5 | – |
| B4 | – | – | Kd [2]: 26 µM |
| B5 | – | > 5 | – |
| B6 | 140 | – | – |

— publication PMC4956616
